Bridges are numbered along the chain shown (N, C = ends). [ ]: non-standard residue; d: D form. Phe(3,4-(OMe)2) = COc1ccc(C[C@H](N)C(=O)O)cc1OC; Phe(4-CF3) = N[C@@H](Cc1ccc(C(F)(F)F)cc1)C(=O)O; 2Nal = N[C@@H](Cc1ccc2ccccc2c1)C(=O)O; Ala(cPent) = N[C@@H](CC1CCCC1)C(=O)O; AEF = NCCOc1ccc(C[C@H](N)C(=O)O)cc1; Cav = NC(N)=NOCC[C@H](N)C(=O)O; hLeu = CC(C)CC[C@H](N)C(=O)O; αMeK = C[C@](N)(CCCCN)C(=O)O; Orn = NCCC[C@H](N)C(=O)O; Abu = CC[C@H](N)C(=O)O; PEG1 = NCCOCCC(=O)O; AEA = NCCOCC(=O)O
T1: IL23R_huFC (human, UniProt Q5VWK5 24-353)
T1 sequence (looked up): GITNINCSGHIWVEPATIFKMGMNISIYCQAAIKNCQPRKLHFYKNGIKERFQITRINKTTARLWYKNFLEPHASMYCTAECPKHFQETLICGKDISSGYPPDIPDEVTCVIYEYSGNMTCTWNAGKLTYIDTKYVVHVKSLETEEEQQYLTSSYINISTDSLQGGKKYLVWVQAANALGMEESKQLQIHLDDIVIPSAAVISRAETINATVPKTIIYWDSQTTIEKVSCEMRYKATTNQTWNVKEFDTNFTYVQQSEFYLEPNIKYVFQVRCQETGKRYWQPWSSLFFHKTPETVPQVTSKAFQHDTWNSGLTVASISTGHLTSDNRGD

T2: IL23R_huFC (human, UniProt Q5VWK5 24-353)
T2 sequence (looked up): T1 sequence (looked up)

B1: Ac-CQTWQCYWR-[Orn]-NG-[AEA]-[(D)-Lys]-NH2 (peptide)
peptide: Ac-CQTWQCYWR[Orn]NG[AEA][dK]-NH2
modifications: disulfide 1-6
SMILES: CC(=O)N[C@H]1CSSC[C@@H](C(=O)N[C@@H](Cc2ccc(O)cc2)C(=O)N[C@@H](Cc2c[nH]c3ccccc23)C(=O)N[C@@H](CCCNC(=N)N)C(=O)N[C@@H](CCCN)C(=O)N[C@@H](CC(N)=O)C(=O)NCC(=O)NCCOCC(=O)N[C@H](CCCCN)C(N)=O)NC(=O)[C@H](CCC(N)=O)NC(=O)[C@H](Cc2c[nH]c3ccccc23)NC(=O)[C@H]([C@@H](C)O)NC(=O)[C@H](CCC(N)=O)NC1=O
B2: Ac-CQTWQCYWRTNG-[AEA]-[(D)-Lys]-NH2 (peptide)
peptide: Ac-CQTWQCYWRTNG[AEA][dK]-NH2
modifications: disulfide 1-6
SMILES: CC(=O)N[C@H]1CSSC[C@@H](C(=O)N[C@@H](Cc2ccc(O)cc2)C(=O)N[C@@H](Cc2c[nH]c3ccccc23)C(=O)N[C@@H](CCCNC(=N)N)C(=O)N[C@H](C(=O)N[C@@H](CC(N)=O)C(=O)NCC(=O)NCCOCC(=O)N[C@H](CCCCN)C(N)=O)[C@@H](C)O)NC(=O)[C@H](CCC(N)=O)NC(=O)[C@H](Cc2c[nH]c3ccccc23)NC(=O)[C@H]([C@@H](C)O)NC(=O)[C@H](CCC(N)=O)NC1=O
B3: Ac-CQTWVCYWRENG-[AEA]-[(D)-Lys]-NH2 (peptide)
peptide: Ac-CQTWVCYWRENG[AEA][dK]-NH2
modifications: disulfide 1-6
SMILES: CC(=O)N[C@H]1CSSC[C@@H](C(=O)N[C@@H](Cc2ccc(O)cc2)C(=O)N[C@@H](Cc2c[nH]c3ccccc23)C(=O)N[C@@H](CCCNC(=N)N)C(=O)N[C@@H](CCC(=O)O)C(=O)N[C@@H](CC(N)=O)C(=O)NCC(=O)NCCOCC(=O)N[C@H](CCCCN)C(N)=O)NC(=O)[C@H](C(C)C)NC(=O)[C@H](Cc2c[nH]c3ccccc23)NC(=O)[C@H]([C@@H](C)O)NC(=O)[C@H](CCC(N)=O)NC1=O
B4: Ac-CQTWVCYWRENG-[AEA]-[(D)-Lys]-NH2 (peptide)
peptide: Ac-CQTWVCYWRENG[AEA][dK]-NH2
modifications: disulfide 1-6
SMILES: CC(=O)N[C@H]1CSSC[C@@H](C(=O)N[C@@H](Cc2ccc(O)cc2)C(=O)N[C@@H](Cc2c[nH]c3ccccc23)C(=O)N[C@@H](CCCNC(=N)N)C(=O)N[C@@H](CCC(=O)O)C(=O)N[C@@H](CC(N)=O)C(=O)NCC(=O)NCCOCC(=O)N[C@H](CCCCN)C(N)=O)NC(=O)[C@H](C(C)C)NC(=O)[C@H](Cc2c[nH]c3ccccc23)NC(=O)[C@H]([C@@H](C)O)NC(=O)[C@H](CCC(N)=O)NC1=O
B5: Ac-CRDWQCYWHKFG-[AEP]-[(D)Lys]-OH (peptide)
peptide: Ac-CRDWQCYWHKFG[PEG1][dK]-OH
modifications: disulfide 1-6
SMILES: CC(=O)N[C@H]1CSSC[C@@H](C(=O)N[C@@H](Cc2ccc(O)cc2)C(=O)N[C@@H](Cc2c[nH]c3ccccc23)C(=O)N[C@@H](Cc2c[nH]cn2)C(=O)N[C@@H](CCCCN)C(=O)N[C@@H](Cc2ccccc2)C(=O)NCC(=O)NCCOCCC(=O)N[C@H](CCCCN)C(=O)O)NC(=O)[C@H](CCC(N)=O)NC(=O)[C@H](Cc2c[nH]c3ccccc23)NC(=O)[C@H](CC(=O)O)NC(=O)[C@H](CCCNC(=N)N)NC1=O

Biological target: T1, IL23R_huFC
Test: IL23-IL23R competitive ELISA

| IC50 | Binder |
| --- | --- |
| < 500 nM | CADWVCYWHTFGAK (Ac-; [β-Ala]; [(D)Lys]; disulfide) [Ac-CADWVCYWHTFG-[β-Ala]-[(D)Lys]-OH] |
| < 500 nM | Ac-CADWVCYWHTFGP[dK]-OH (disulfide 1-6 (inferred)) [Ac-CADWVCYWHTFGP-[(D)Lys]-OH] |
| < 500 nM | Ac-CRTWECYWHEYG-NH2 (disulfide 1-6 (inferred)) [Ac-CRTWECYWHEYG-NH2] |
| < 500 nM | Ac-CTTWECYWHEYG-NH2 (disulfide 1-6 (inferred)) [Ac-CTTWECYWHEYG-NH2] |
| < 500 nM | Ac-CRTWECYWHEFG-NH2 (disulfide 1-6 (inferred)) [Ac-CRTWECYWHEFG-NH2] |
| < 500 nM | Ac-CRTWQCYWHEYG-NH2 (disulfide 1-6 (inferred)) [Ac-CRTWQCYWHEYG-NH2] |
| < 500 nM | Ac-CATWQCYWHEYG-NH2 (disulfide 1-6 (inferred)) [Ac-CATWQCYWHEYG-NH2] |
| < 500 nM | Ac-CTTWECYWHQFG-NH2 (disulfide 1-6 (inferred)) [Ac-CTTWECYWHQFG-NH2] |
| < 500 nM | Ac-CTTWECYWHEFG-NH2 (disulfide 1-6 (inferred)) [Ac-CTTWECYWHEFG-NH2] |
| < 500 nM | H-CRTWQCYWRKFG-NH2 (disulfide 1-6 (inferred)) [Hy-CRTWQCYWRKFG-NH2] |
| < 500 nM | CQTWQCYWRXNGXK (Ac-; [Dapa]; [AEA]; [(D)-Lys]; -NH2; disulfide) [Ac-CQTWQCYWR-[Dapa]-NG-[AEA]-[(D)-Lys]-NH2] |
| < 500 nM | B1 |
| < 500 nM | H-CRDWQCYWHKFG-NH2 (disulfide 1-6 (inferred)) [Hy-CRDWQCYWHKFG-NH2] |
| < 500 nM | Ac-CADWVCYWHTYG-NH2 (disulfide 1-6 (inferred)) [Ac-CADWVCYWHTYG-NH2] |
| < 500 nM | Ac-CTDWVCYWHTFG-NH2 (disulfide 1-6 (inferred)) [Ac-CTDWVCYWHTFG-NH2] |
| < 500 nM | Ac-CTTWTCYWHQYG-NH2 (disulfide 1-6 (inferred)) [Ac-CTTWTCYWHQYG-NH2] |
| < 500 nM | Ac-CADWVCYWHTFGER-NH2 (disulfide 1-6 (inferred)) [Ac-CADWVCYWHTFGER-NH2] |
| < 500 nM | Ac-CADWVCYWHTHGER-NH2 (disulfide 1-6 (inferred)) [Ac-CADWVCYWHTHGER-NH2] |
| < 500 nM | Ac-CQTWECYWHLYG-NH2 (disulfide 1-6 (inferred)) [Ac-CQTWECYWHLYG-NH2] |
| < 500 nM | Ac-CQTWQCYW[Ala(cPent)]ENG-NH2 (disulfide 1-6 (inferred)) [Ac-CQTWQCYW-[Cpa]-ENG-NH2] |

| IC50 | Binder |
| --- | --- |
| < 500 nM | Ac-DTPRCRTWECYWHTFG-NH2 (disulfide 5-10 (inferred)) [Ac-DTPRCRTWECYWHTFG-NH2] |
| < 500 nM | Ac-CEDWKCYWHKYG-NH2 (disulfide 1-6 (inferred)) [Ac-CEDWKCYWHKYG-NH2] |
| < 500 nM | Ac-CRTWECYWHEQS-NH2 (disulfide 1-6 (inferred)) [Ac-CRTWECYWHEQS-NH2] |
| < 500 nM | Ac-CKTWTCYWHEFG-NH2 (disulfide 1-6 (inferred)) [Ac-CKTWTCYWHEFG-NH2] |
| < 500 nM | H-CSNWVCYWHTYG-NH2 (disulfide 1-6 (inferred)) [Hy-CSNWVCYWHTYG-NH2] |
| < 500 nM | Ac-CQTWQCYW[Cav]ENG-NH2 (disulfide 1-6 (inferred)) [Ac-CQTWQCYW-[Cav]-ENG-NH2] |
| < 500 nM | B2 |
| < 500 nM | Ac-CRTWQCYWRKFG[AEA][dK]-NH2 (disulfide 1-6 (inferred)) [Ac-CRTWQCYWRKFG-[AEA]-[(D)-Lys]-NH2] |
| < 500 nM | B3 |
| < 500 nM | B4 |
| < 500 nM | B5 |
| < 500 nM | Ac-CADWVCYWHTFG-OH (disulfide 1-6 (inferred)) [Ac-CADWVCYWHTFG-OH] |
| < 500 nM | Ac-CADWVCYWHTFGAA[dK]-OH (disulfide 1-6 (inferred)) [Ac-CADWVCYWHTFGAA[(D)Lys]-OH] |
| < 500 nM | Ac-CQTWQCYWRENG-NH2 (disulfide 1-6 (inferred)) [Ac-CQTWQCYWRENG-NH2] |
| < 500 nM | Ac-CQTWQCYWRK(Ac)NG-NH2 (disulfide 1-6 (inferred)) [Ac-CQTWQCYWR-[K-Ac]-NG-NH2] |
| < 500 nM | Ac-CQTWQCYWLENG-NH2 (disulfide 1-6 (inferred)) [Ac-CQTWQCYWLENG-NH2] |
| < 500 nM | Ac-CQTWQCYW[hLeu]ENG-NH2 (disulfide 1-6 (inferred)) [Ac-CQTWQCYW[-hLeu]-ENG-NH2] |
| < 500 nM | Ac-CADWVCYWHRHADRVK-NH2 (disulfide 1-6 (inferred)) [Ac-CADWVCYWHRHADRVK-NH2] |
| < 500 nM | Ac-CADWVCYWHTFGA[dK]-OH (disulfide 1-6 (inferred)) [Ac-CADWVCYWHTFGA-[(D)Lys]-OH] |

Biological target: T2, IL23R_huFC
Test: human ELISA vs IL-23

| IC50 | Binder |
| --- | --- |
| ~3000 nM | Ac-[Abu]QT[Phe(3,4-(OMe)2)]QC[AEF][2Nal][αMeK]ENG-NH2 (thioether 1-6) [Ac-Cyclo-[[Abu]-QT-[Phe(3,4-OMe)]-QC]-[Phe[4-(2-aminoethoxy)]]-[2-Nal]-[α-MeLys]-ENG-NH2] |
| ~3000 nM | Ac-[Abu]QT[Phe(4-CF3)]QC[AEF][2Nal][αMeK]ENG-NH2 (thioether 1-6) [Ac-Cyclo-[[Abu]-QT-[Phe(4-CF3)]-QC]-[Phe[4-(2-aminoethoxy)]]-[2-Nal]-[α-MeLys]-ENG-NH2] |

— US20190300590A1 (PROTAGONIST THERAPEUTICS, published 2019)
